Results taken from paper PMC9482650, “Quantitative fragmentomics allow affinity mapping of interactomes” (Nature Communications, 2022).
Residue numbers refer to the chain shown, from its start.

How the values were obtained:
Assay in all cases: holdup assay
Set-up in all cases: key: below the threshold = too weak to quantify, mostly under pKd 3.1 to 4
IL16_3, Q14005 = molecular target: IL16_3, Q14005
Inadl_1, Q8NI35 = molecular target: Inadl_1, Q8NI35
LIMK2, P53671 = molecular target: LIMK2, P53671
PDZD7_3, Q9H5P4 = molecular target: T1, PDZD7_3, Q9H5P4
T1 sequence (Q9H5P4 857-944, limits assumed, looked up): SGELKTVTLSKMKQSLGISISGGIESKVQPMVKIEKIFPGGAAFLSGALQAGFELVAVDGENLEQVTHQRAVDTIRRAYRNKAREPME

Inadl_2, Q8NI35 = molecular target: Inadl_2, Q8NI35
LAP2, Q96RT1 = molecular target: LAP2, Q96RT1
DLG2_3, Q15700 = molecular target: DLG2_3, Q15700
MAST1, Q9Y2H9 = molecular target: MAST1, Q9Y2H9
MPDZ_12, O75970 = molecular target: T2, MPDZ_12, O75970
T2 sequence (O75970 1857-1958, limits assumed, looked up): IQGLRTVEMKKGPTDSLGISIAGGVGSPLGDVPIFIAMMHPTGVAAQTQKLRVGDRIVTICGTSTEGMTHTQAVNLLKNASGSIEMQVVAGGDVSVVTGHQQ

GRASP, Q7Z6J2 = molecular target: GRASP, Q7Z6J2
FRMPD3, Q5JV73 = molecular target: FRMPD3, Q5JV73
APBA1_2, Q02410 = molecular target: T3, APBA1_2, Q02410
T3 sequence (Q02410 742-832, limits assumed, looked up): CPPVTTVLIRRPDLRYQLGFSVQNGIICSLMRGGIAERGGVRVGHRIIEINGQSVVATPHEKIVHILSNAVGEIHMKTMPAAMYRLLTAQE

GORASP1, Q9BQQ3 = molecular target: GORASP1, Q9BQQ3
NHERF2_2, Q15599 = molecular target: NHERF2_2, Q15599
PCLO, Q9Y6V0 = molecular target: T4, PCLO, Q9Y6V0
T4 sequence (Q9Y6V0 4491-4600, limits assumed, looked up): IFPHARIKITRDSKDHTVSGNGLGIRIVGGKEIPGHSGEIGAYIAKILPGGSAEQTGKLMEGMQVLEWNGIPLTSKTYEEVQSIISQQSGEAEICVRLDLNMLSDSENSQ

APBA2_2, Q99767 = molecular target: T5, APBA2_2, Q99767
T5 sequence (Q99767 654-744, limits assumed, looked up): T3 sequence (Q02410 742-832, limits assumed, looked up) with R10K, R15K, P59A, H65Q, I66A, A70S, Y84F, A89G

ARHGEF12, Q9NZN5-2 = molecular target: ARHGEF12, Q9NZN5-2
MAGI2_2, Q86UL8 = molecular target: MAGI2_2, Q86UL8
NOS1, P29475 = molecular target: NOS1, P29475
MPDZ_10, O75970 = molecular target: T6, MPDZ_10, O75970
T6 sequence (O75970 1624-1722, limits assumed, looked up): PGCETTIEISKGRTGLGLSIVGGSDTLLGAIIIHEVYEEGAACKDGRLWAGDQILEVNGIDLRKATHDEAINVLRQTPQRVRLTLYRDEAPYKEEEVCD

GRIP1_5, Q9Y3R0 = molecular target: T7, GRIP1_5, Q9Y3R0
T7 sequence (Q9Y3R0 568-668, limits assumed, looked up): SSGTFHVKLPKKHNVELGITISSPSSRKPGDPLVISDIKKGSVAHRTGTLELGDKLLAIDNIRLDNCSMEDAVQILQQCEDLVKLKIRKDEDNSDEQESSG

NHERF4_4, Q86UT5 = molecular target: NHERF4_4, Q86UT5
GRIP1_4, Q9Y3R0 = molecular target: T8, GRIP1_4, Q9Y3R0
T8 sequence (Q9Y3R0 467-571, limits assumed, looked up): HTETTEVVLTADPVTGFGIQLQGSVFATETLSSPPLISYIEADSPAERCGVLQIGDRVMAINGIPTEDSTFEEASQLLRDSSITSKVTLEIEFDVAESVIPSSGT

DLG3_3, Q92796 = molecular target: T9, DLG3_3, Q92796
T9 sequence (Q92796 374-475, limits assumed, looked up): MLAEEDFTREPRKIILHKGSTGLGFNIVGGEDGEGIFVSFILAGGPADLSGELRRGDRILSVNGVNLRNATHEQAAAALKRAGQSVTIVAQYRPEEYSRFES

DVL3, Q92997 = molecular target: T10, DVL3, Q92997
T10 sequence (Q92997 244-331, limits assumed, looked up): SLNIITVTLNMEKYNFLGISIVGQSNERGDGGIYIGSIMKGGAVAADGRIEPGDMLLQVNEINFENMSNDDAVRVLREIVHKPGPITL

PARD3B_1, Q8TEW8 = molecular target: T11, PARD3B_1, Q8TEW8
T11 sequence (Q8TEW8 196-299, limits assumed, looked up): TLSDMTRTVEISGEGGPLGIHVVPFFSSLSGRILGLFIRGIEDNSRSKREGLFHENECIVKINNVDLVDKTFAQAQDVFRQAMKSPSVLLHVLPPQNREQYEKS

MAGI2_5, Q86UL8 = molecular target: MAGI2_5, Q86UL8
[1] = plain residues with an end cap or a label only (N-terminal biotin on a linker: gsgsgs; C-terminal amide)
[2] = plain residues with an end cap or a label only (N-terminal biotin on a linker: ttds)

Chain of Inadl_1, Q8NI35 (Q8NI35 113-229): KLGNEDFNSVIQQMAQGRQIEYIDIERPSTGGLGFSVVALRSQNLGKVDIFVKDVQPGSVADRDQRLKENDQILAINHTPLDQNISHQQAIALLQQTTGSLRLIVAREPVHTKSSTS
Chain of MAGI2_2, Q86UL8 (Q86UL8 410-522): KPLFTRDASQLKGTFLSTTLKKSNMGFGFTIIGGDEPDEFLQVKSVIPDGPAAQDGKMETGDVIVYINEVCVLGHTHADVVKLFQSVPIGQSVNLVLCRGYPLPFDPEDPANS
Chain of FRMPD3, Q5JV73 (Q5JV73 12-100): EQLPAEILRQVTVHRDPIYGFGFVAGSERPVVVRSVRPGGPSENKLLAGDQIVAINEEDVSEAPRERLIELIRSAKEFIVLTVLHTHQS
Chain of NHERF4_4, Q86UT5 (Q86UT5 464-550): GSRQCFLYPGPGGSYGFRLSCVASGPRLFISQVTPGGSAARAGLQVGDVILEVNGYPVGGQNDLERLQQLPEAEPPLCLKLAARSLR
Chain of GORASP1, Q9BQQ3 (Q9BQQ3 1-208): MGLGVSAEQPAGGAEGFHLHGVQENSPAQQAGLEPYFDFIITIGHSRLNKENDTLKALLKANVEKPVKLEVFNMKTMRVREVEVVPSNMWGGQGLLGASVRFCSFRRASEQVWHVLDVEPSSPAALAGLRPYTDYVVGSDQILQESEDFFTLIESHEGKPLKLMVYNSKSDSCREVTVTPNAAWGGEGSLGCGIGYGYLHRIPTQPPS
Chain of GRASP, Q7Z6J2 (Q7Z6J2 96-193): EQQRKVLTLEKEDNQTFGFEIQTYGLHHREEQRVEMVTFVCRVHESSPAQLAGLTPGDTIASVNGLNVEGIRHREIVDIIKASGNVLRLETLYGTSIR
Chain of ARHGEF12, Q9NZN5-2 (Q9NZN5 other isoform, or with tags, fused parts or gaps): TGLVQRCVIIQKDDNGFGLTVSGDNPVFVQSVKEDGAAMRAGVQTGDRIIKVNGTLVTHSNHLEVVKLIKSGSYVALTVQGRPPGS
Chain of NHERF2_2, Q15599 (Q15599 142-238): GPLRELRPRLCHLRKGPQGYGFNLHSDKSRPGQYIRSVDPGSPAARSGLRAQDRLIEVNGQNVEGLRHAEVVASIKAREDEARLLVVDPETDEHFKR
Chain of LIMK2, P53671 (P53671 143-248): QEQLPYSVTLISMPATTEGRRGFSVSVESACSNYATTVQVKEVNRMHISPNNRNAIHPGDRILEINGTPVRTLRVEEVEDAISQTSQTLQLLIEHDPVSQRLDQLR
Chain of LAP2, Q96RT1 (Q96RT1 other isoform, or with tags, fused parts or gaps): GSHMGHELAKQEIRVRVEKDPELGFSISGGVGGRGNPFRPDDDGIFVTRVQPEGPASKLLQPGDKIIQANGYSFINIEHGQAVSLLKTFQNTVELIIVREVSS
Chain of MAST1, Q9Y2H9 (Q9Y2H9 962-1065): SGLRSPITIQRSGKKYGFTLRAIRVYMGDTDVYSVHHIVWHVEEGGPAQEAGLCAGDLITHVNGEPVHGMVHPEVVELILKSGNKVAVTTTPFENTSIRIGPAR
Chain of IL16_3, Q14005 (Q14005 1107-1207): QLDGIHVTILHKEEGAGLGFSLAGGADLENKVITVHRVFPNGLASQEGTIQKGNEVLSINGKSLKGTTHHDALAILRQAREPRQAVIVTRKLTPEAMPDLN
Chain of MAGI2_5, Q86UL8 (Q86UL8 915-1017): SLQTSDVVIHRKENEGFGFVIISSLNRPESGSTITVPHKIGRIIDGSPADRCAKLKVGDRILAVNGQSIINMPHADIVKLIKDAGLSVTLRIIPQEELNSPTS
Chain of NOS1, P29475 (P29475 9-101): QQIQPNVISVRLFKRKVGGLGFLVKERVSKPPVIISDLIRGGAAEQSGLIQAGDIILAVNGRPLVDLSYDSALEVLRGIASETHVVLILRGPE
Chain of Inadl_2, Q8NI35 (Q8NI35 238-335): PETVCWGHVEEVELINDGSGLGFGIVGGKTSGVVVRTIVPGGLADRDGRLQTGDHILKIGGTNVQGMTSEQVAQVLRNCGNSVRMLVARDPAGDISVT

B1: AXIN1_int, O15169 (peptide)
chain: TLSLTDSSVDGIPPYR
For B1, the pKd (IL16_3, Q14005; [1]) was “below the threshold”, the pKd (Inadl_1, Q8NI35; [1]) was “below the threshold” and the pKd (LIMK2, P53671; [1]) was “below the threshold”. For the same binder, the pKd (PDZD7_3, Q9H5P4; [1]) was “below the threshold”, the pKd (Inadl_2, Q8NI35; [1]) was “below the threshold” and the pKd (LAP2, Q96RT1; [1]) was “below the threshold”. For the same binder, the pKd (DLG2_3, Q15700; [1]) was 3.67, the pKd (MAST1, Q9Y2H9; [1]) was 3.68 and the pKd (MPDZ_12, O75970; [1]) was 3.55. For the same binder, the pKd (GRASP, Q7Z6J2; [1]) was “below the threshold”, the pKd (FRMPD3, Q5JV73; [1]) was “below the threshold” and the pKd (APBA1_2, Q02410; [1]) was “below the threshold”. The pKd (GORASP1, Q9BQQ3; [1]) was “below the threshold”, the pKd (NHERF2_2, Q15599; [1]) was “below the threshold” and the pKd (PCLO, Q9Y6V0; [1]) was “below the threshold”. For the same binder, the pKd (APBA2_2, Q99767; [1]) was “below the threshold”, the pKd (ARHGEF12, Q9NZN5-2; [1]) was “below the threshold” and the pKd (MAGI2_2, Q86UL8; [1]) was “below the threshold”. The pKd (NOS1, P29475; [1]) was “below the threshold”, the pKd (MPDZ_10, O75970; [1]) was “below the threshold” and the pKd (GRIP1_5, Q9Y3R0; [1]) was “below the threshold”. The pKd (NHERF4_4, Q86UT5; [1]) was “below the threshold”, the pKd (GRIP1_4, Q9Y3R0; [1]) was “below the threshold” and the pKd (DLG3_3, Q92796; [1]) was “below the threshold”. For the same binder, the pKd (DVL3, Q92997; [1]) was “below the threshold”, the pKd (PARD3B_1, Q8TEW8; [1]) was “below the threshold” and the pKd (MAGI2_5, Q86UL8; [1]) was “below the threshold”.

B2: DLGAP4, Q9Y2H0 (peptide)
chain: IYVPEAQTRL
With B2 the pKd (IL16_3, Q14005; [2]) was “below the threshold”, the pKd (Inadl_1, Q8NI35; [2]) was “below the threshold” and the pKd (LIMK2, P53671; [2]) was “below the threshold”. For the same binder, the pKd (PDZD7_3, Q9H5P4; [2]) was 4.31, the pKd (Inadl_2, Q8NI35; [2]) was “below the threshold” and the pKd (LAP2, Q96RT1; [2]) was “below the threshold”. For the same binder, the pKd (DLG2_3, Q15700; [2]) was “below the threshold”, the pKd (MAST1, Q9Y2H9; [2]) was 5.01 and the pKd (MPDZ_12, O75970; [2]) was “below the threshold”. For the same binder, the pKd (GRASP, Q7Z6J2; [2]) was 4.2, the pKd (FRMPD3, Q5JV73; [2]) was “below the threshold” and the pKd (APBA1_2, Q02410; [2]) was 3.64. For the same binder, the pKd (GORASP1, Q9BQQ3; [2]) was “below the threshold”, the pKd (NHERF2_2, Q15599; [2]) was 4.84 and the pKd (PCLO, Q9Y6V0; [2]) was “below the threshold”. The pKd (APBA2_2, Q99767; [2]) was “below the threshold”, the pKd (ARHGEF12, Q9NZN5-2; [2]) was 4.1 and the pKd (MAGI2_2, Q86UL8; [2]) was “below the threshold”. The pKd (NOS1, P29475; [2]) was 3.76, the pKd (MPDZ_10, O75970; [2]) was “below the threshold” and the pKd (GRIP1_5, Q9Y3R0; [2]) was “below the threshold”. For the same binder, the pKd (NHERF4_4, Q86UT5; [2]) was “below the threshold”, the pKd (GRIP1_4, Q9Y3R0; [2]) was “below the threshold” and the pKd (DLG3_3, Q92796; [2]) was “below the threshold”. For the same binder, the pKd (DVL3, Q92997; [2]) was “below the threshold”, the pKd (PARD3B_1, Q8TEW8; [2]) was 4.16 and the pKd (MAGI2_5, Q86UL8; [2]) was 3.82.
